In patent publication US20050282739A1 (PALATIN TECHNOLOGIES, published 2005):
Square brackets hold non-standard residues; d marks the D form. Ends that are not written are not given here. Nle = CCCC[C@H](N)C(=O)O

Legend:
[1] = molecular target: T1, melanocortin-1 receptor (MC1-R) of B-16 mouse melanoma cells (mouse, UniProt Q01727 1-315); experiment: 125I-NDP-α-MSH competition, B-16 membranes
T1 construct: whole, on cells; membranes prepared from the cells were used; also called Melanocortin Receptor 1
Experimental: (§1) The competitive inhibition binding assay was conducted using membranes prepared from hMC3-R, hMC4-R, hMC5-R, and B-16 mouse melanoma cells (containing MC1-R) using 0.4 nM ¹²⁵I-NDP-alpha-MSH (New England Nuclear, Boston, Mass., USA) in 50 mM HEPES buffer containing 1 mM MgCl₂, 2 mM CaCl₂, and 5 mM KCl, at pH 7.2. […] Incubation was for 90 minutes at room temperature, after which the assay mixture was filtered and the membranes washed three times with ice cold buffer. The filter was dried and counted in a gamma counter for remaining radioactivity bound to the membranes. 100% specific binding was defined as the difference in radioactivity (cpm) bound to cell membranes in the absence and presence of 1 μM α-MSH. […] Each assay was conducted in triplicate and the actual mean valves are described.
(§2) The first unnumbered peptide in Table 5 is the parent polypeptide, which is a γ-MSH analog specific for melanocortin receptors. The methods and assays set forth in Example 1 were followed.

[2] = molecular target: T2, human melanocortin-3 receptor (hMC3-R) (human, UniProt P41968 1-323); experiment: 125I-NDP-α-MSH competition, hMC3-R membranes
T2 construct: whole, on cells; membranes prepared from hMC3-R cells were used; also called Melanocortin Receptor 3
Experimental: as §1, §2

[3] = molecular target: T3, human melanocortin-4 receptor (hMC4-R) (human, UniProt P32245 1-332); experiment: 125I-NDP-α-MSH competition, hMC4-R membranes
T3 construct: whole, on cells; membranes prepared from hMC4-R cells were used; also called Melanocortin Receptor 4
Experimental: as §1, §2

[4] = molecular target: T4, human melanocortin-5 receptor (hMC5-R) (human, UniProt P33032 1-325); experiment: 125I-NDP-α-MSH competition, hMC5-R membranes
T4 construct: whole, on cells; membranes prepared from hMC5-R cells were used; also called Melanocortin Receptor 5
Experimental: as §1, §2

T1 sequence (Q01727 whole entry): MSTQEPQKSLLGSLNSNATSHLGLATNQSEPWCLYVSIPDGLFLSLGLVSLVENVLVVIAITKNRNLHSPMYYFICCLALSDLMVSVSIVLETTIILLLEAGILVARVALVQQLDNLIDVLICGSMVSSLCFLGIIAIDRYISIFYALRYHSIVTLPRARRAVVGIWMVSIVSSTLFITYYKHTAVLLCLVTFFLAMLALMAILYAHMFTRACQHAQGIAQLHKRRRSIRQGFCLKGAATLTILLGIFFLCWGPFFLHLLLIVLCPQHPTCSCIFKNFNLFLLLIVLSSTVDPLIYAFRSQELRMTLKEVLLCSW
T3 sequence (P32245 whole entry): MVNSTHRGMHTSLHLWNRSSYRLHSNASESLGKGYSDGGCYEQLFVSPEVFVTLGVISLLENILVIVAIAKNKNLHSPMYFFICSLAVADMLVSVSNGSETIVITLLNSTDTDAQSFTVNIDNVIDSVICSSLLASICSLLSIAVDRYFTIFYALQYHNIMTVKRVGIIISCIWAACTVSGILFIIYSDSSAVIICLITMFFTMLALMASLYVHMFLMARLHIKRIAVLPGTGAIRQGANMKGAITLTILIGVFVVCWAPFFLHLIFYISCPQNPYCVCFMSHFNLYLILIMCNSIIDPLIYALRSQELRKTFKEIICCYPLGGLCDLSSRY
T2 sequence (P41968 whole entry): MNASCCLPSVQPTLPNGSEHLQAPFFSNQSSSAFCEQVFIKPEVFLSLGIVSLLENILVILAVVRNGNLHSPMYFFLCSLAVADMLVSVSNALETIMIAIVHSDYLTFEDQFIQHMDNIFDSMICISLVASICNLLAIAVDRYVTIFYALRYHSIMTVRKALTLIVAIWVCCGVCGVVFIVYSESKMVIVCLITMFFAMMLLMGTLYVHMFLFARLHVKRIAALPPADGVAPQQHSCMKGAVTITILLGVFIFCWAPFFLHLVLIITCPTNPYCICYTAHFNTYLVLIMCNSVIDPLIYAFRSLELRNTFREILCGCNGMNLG
T4 sequence (P33032 whole entry): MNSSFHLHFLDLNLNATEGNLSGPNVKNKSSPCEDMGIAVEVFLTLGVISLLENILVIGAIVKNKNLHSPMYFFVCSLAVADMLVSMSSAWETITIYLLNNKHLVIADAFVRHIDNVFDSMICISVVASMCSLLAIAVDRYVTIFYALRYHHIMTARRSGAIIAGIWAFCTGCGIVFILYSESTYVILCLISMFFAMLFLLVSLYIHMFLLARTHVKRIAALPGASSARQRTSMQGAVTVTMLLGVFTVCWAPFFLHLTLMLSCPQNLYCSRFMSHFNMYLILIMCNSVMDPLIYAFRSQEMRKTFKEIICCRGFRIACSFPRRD

Binder | % Inhibition at 1 µM [1] | % Inhibition at 1 µM [2] | % Inhibition at 1 µM [3] | % Inhibition at 1 µM [4]
YV[Nle]GH[dF]RWDCF-NH2 (also: oxorhenium(V) N3S1 chelate: C10 SG + backbone N of W8, D9, C10, bridge at 10 via Re(V)=O, other end not in the chain) [metallopeptide 5-2] | 95% | 39% | 58% | 61%
YV[Nle]GH[dF]CWDRF-NH2 (also: oxorhenium(V) N3S1 chelate: C7 SG + backbone N of H5, F6, C7, bridge at 7 via Re(V)=O, other end not in the chain) [metallopeptide 5-5] | 67% | 15% | 26% | 28%
YV[Nle]GH[dF]RWCRF-NH2 (also: oxorhenium(V) N3S1 chelate: C9 SG + backbone N of R7, W8, C9, bridge at 9 via Re(V)=O, other end not in the chain) [metallopeptide 5-3] | 100% | 93% | 97% | 100%
YV[Nle]GHCRWDRF-NH2 (also: oxorhenium(V) N3S1 chelate: C6 SG + backbone N of G4, H5, C6, bridge at 6 via Re(V)=O, other end not in the chain) [metallopeptide 5-6] | 74% | 26% | 4% | 21%
YV[Nle]GH[dF]RCDRF-NH2 (also: oxorhenium(V) N3S1 chelate: C8 SG + backbone N of F6, R7, C8, bridge at 8 via Re(V)=O, other end not in the chain) [metallopeptide 5-4] | 86% | 11% | 18% | 58%

Other lines, results leading:

% Inhibition at 1 µM [1] | % Inhibition at 1 µM [2] | % Inhibition at 1 µM [3] | % Inhibition at 1 µM [4] | Binder
95% | 89% | 86% | 98% | YV[Nle]CH[dF]RWDRF-NH2 (also: oxorhenium(V) N3S1 chelate: C4 SG + backbone N of V2, X3, C4, bridge at 4 via Re(V)=O, other end not in the chain) [metallopeptide 5-8]
89% | 70% | 69% | 88% | YV[Nle]GC[dF]RWDRF-NH2 (also: oxorhenium(V) N3S1 chelate: C5 SG + backbone N of X3, G4, C5, bridge at 5 via Re(V)=O, other end not in the chain) [metallopeptide 5-7]
89% | 53% | 66% | 53% | YVCGH[dF]RWDRF-NH2 (also: oxorhenium(V) N3S1 chelate complex at Cys3) [metallopeptide 5-9]
